Data: publication PMC11046454

Tests used:
[1] = system: anti-FITC CAR (E2 scFv, CD8a hinge/TM, 4-1BB, CD3zeta) on CAR-J Jurkat or CAR-T cells (synthetic construct); test: flow cytometry, CAR-T cells; details: via FITC; Cells 1e6/mL in DPBS, 1% FBS, 5 mM MgCl2, 4 C, 30 min; flow cytometry (pH 6.5 or 7.4 for i-motif; 1 mM ATP where stated)
[2] = system: anti-FITC CAR (E2 scFv, CD8a hinge/TM, 4-1BB, CD3zeta) on CAR-J Jurkat or CAR-T cells (synthetic construct); test: flow cytometry, CAR-J cells; details: via FITC; Cells 1e6/mL in DPBS, 1% FBS, 5 mM MgCl2, 4 C, 30 min; flow cytometry (pH 6.5 or 7.4 for i-motif; 1 mM ATP where stated)

Sequence | binding signal (fold vs ssDNA) [1] | Kd [2] [nM]
ACATTCCTAAGTCTGAAACATTACAGCTTGCTACACGAGAAGAGCCGCCATAGTA / TTTATCACCAGGCAGTTGACAGTGTAGCAAGCTGTAATAGATGCGAGGGTCCAATAC / TTTCAACTGCCTGGTGATAAAACGACACTACGTGGGAATCTACTATGGCGGCTCTTC / TTTTCAGACTTAGGAATGTGCTTCCCACGTAGTGTCGTTTGTATTGGACCCTCGCAT [FITC-TDN-Cy5] | 3 | –
TTTTTTTTTTTTTTTTTTTTTTTTTTTTTTTTTTTTTTTT [FITC-DNA-Cy5] | – | 26.4
